In patent US20120316107A1 (CASE WESTERN RESERVE UNIVERSITY, published 2012):
Positions count from the first letter of the chain named. Where no end group is shown, it is not given here.

B1: single chain insulin (SCI) that is wild type at position B10 (His^A8, Asp^B28, Pro^B29) (ligand)
chain: FVNQHLCGSHLVEALYLVCGERGFFYTDPTGGGPRRGIVEQCCHSICSLYQLENYCN
notes: also called A8-His, B28-Asp, B29-Pro SCI; SCI not containing the Asp^B10 substitution
B2: 57 mer single-chain insulin analogue (His^A8, Asp^B10, Asp^B28, Pro^B29; GGGPRR linker) (ligand)
chain: B1 chain with H10D
modifications: ends and bridges not checked; cysteine pairing not given here
notes: also called 57mer single-chain analogue; 57-mer single-chain Analog

Experiments:
[1] = biological target: T1, Insulin-like Growth Factor receptor (UniProt P08069 31-1367, limits assumed); experiment: competitive displacement of 125I-IGF-1 from IGFR
T1 construct: Captured on antibody-coated microtiter plates; the construct is not described; also called IGFR; IGF Type I receptor

[2] = biological target: T1, Insulin-like Growth Factor receptor; experiment: competitive displacement of labelled ligand, receptor captured on anti-FLAG IgG plate, two-site sequential model
Description: DNA for transfection was prepared according to the method of Mynarcik et al. (J. Biol. Chem., 1997, 272, pp 18650-18655). The receptor cDNAs were expressed transiently in PEAK rapid cells using polyethyleneimine. Cells were harvested by lysis in 0.15M NaCl and 0.1M Tris (pH 8) containing 1% (v/v) Triton X-100 and protease inhibitor cocktail three days post-transfection. Lysates were stored at −80° C. until assay. Receptor-binding assays were performed as described by Mynarcik. Microtiter strip plates (Nunc Maxisorb) were incubated overnight at 4° C. with anti-FLAG IgG ([…] in PBS). Washing, blocking, receptor binding and competitive binding assays with labeled and unlabeled peptides were performed as described.

Binder | Kd [1] | Kd [2]
B1 | 27.6 nM | 27.6 nM
B2 | – | 9.89 nM
